Five molecules from patent publication US20020058247A1 (TRIPEP, published 2002) can be followed below.

Assay [1] deals with T1, Full length recombinant HBcAg (rHBcAg) encompassing residues 1-183 (hepatitis B virus, UniProt P03146 1-183).
T1 construct: range 1-183; also called hepatitis B virus core antigen
As to the kind of experiment: competition EIA, HBcAg coated 5 ug/ml, peptide 6.25 ug/ml together with mAb 4-2 (competitor); OD of bound mAb.

Assay [2] has as its target T1, Full length recombinant HBcAg (rHBcAg) …. Put plainly: competition EIA, HBcAg coated 1 ug/ml, peptide 6.25 ug/ml before mAb 4-2 (competitor); OD of bound mAb.
The target is the same in assay [3]. As to the kind of experiment: competition EIA, HBcAg coated 1 ug/ml, peptide 200 ug/ml before mAb 4-2 (competitor); OD of bound mAb.
For assay [4] the target is unchanged. Put plainly: competition EIA, HBcAg coated 1 ug/ml, peptide 25 ug/ml before mAb 4-2 (competitor); OD of bound mAb.
The target is the same in assay [5]. As to the kind of experiment: EIA, peptide coated 3.125 ug/ml, HBcAg 10 ug/ml.
The target is the same in assay [6]. Put plainly: EIA, support-bound peptide, HBcAg 0.2 ug/well.
Assay [7] addresses T2, truncated recombinant form of HBeAg containing nine residues of pre-core and the 150 first residues of HBcAg (hepatitis B virus, UniProt P03146 1-150).
T2 construct: domain: nine residues of pre-core;range 1-150; also called hepatitis B virus e antigen
As to the kind of experiment: EIA, support-bound peptide, HBeAg 20 ug/ml.

In assay [8] the target is T1, Full length recombinant HBcAg (rHBcAg) …. As to the kind of experiment: competition EIA, HBcAg coated 5 ug/ml, peptide 50 ug/ml together with mAb 4-2 (competitor); OD of bound mAb.
Assay [9] deals with T2, truncated recombinant form of HBeAg …. Put plainly: EIA, support-bound peptide, HBeAg 2.5 ug/ml.
For assay [10] the target is unchanged. As to the kind of experiment: EIA, support-bound peptide, HBeAg 0.67 ug/ml.
The target in assay [11] is T1, Full length recombinant HBcAg (rHBcAg) …. As to the kind of experiment: EIA, support-bound peptide, HBcAg 20 ug/ml.
The target is the same in assay [12]. Put plainly: EIA, support-bound peptide, HBcAg 10 ug/ml.
The target is the same in assay [13]. Put plainly: EIA, support-bound peptide, HBcAg 5 ug/ml.
The target in assay [14] is T2, truncated recombinant form of HBeAg …. As to the kind of experiment: EIA, support-bound peptide, HBeAg 5 ug/ml.
Assay [15] has as its target T1, Full length recombinant HBcAg (rHBcAg) …. As to the kind of experiment: competition EIA, HBcAg coated 5 ug/ml, peptide 12.5 ug/ml together with mAb 4-2 (competitor); OD of bound mAb.
The target is the same in assay [16]. As to the kind of experiment: competition EIA, HBcAg coated 5 ug/ml, peptide 200 ug/ml together with mAb 4-2 (competitor); OD of bound mAb.
For assay [17] the target is unchanged. Put plainly: EIA, peptide coated 6.25 ug/ml, HBcAg 10 ug/ml.
The target is the same in assay [18]. As to the kind of experiment: EIA, peptide coated 25 ug/ml, HBcAg 10 ug/ml.
The target of assay [19] is T2, truncated recombinant form of HBeAg …. As to the kind of experiment: EIA, support-bound peptide, HBeAg 10 ug/ml.
The target in assay [20] is T1, Full length recombinant HBcAg (rHBcAg) …. Put plainly: competition EIA, HBcAg coated 1 ug/ml, peptide 12.5 ug/ml before mAb 4-2 (competitor); OD of bound mAb.
The target is the same in assay [21]. As to the kind of experiment: competition EIA, HBcAg coated 1 ug/ml, peptide 50 ug/ml before mAb 4-2 (competitor); OD of bound mAb.
Assay [22] has as its target T2, truncated recombinant form of HBeAg …. As to the kind of experiment: EIA, support-bound peptide, HBeAg 1.25 ug/ml.

T1 sequence (P03146 whole entry, the tested form may be a part): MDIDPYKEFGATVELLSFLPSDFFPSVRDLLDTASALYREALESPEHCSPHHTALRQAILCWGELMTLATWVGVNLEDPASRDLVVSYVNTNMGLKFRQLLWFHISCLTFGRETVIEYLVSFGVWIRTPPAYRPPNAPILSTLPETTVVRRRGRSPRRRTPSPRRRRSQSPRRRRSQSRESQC
T2 sequence (P03146 1-150): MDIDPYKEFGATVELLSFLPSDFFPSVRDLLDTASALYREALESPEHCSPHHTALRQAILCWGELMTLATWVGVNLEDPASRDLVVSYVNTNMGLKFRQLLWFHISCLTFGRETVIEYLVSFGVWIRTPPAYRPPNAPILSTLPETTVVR

Turning to CKASGYSFTGYNMNWVKQSH (also called Peptide # 26) [CKASGYSFTGYNMNWVKQSH (SEQ. ID. No. 29)], the “OD at 490 nm” value in [1] was found to be 1.2 OD; in assay [2], 0.351 OD; in [3], 0.201 OD; in assay [4] it was 0.383 OD; in [8], 1.25 OD; in assay [15] it was 1.27 OD. For the same molecule, the “OD at 490 nm” value amounted to 0.341 OD in [16], 0.357 OD in [20] and 0.337 OD in assay [21]. For the same molecule, the OD in assay [5] stood at 0.171 OD; in [7] it was 0.241 OD; in assay [9], 0.063 OD; in assay [10] it was 0.027 OD; in [11] it was 1.48 OD; in assay [12], 0.601 OD. Also, the OD in assay [13] was 0.245 OD; in assay [14] it was 0.091 OD; in assay [17], 0.156 OD; in assay [18], 0.181 OD; in [19] it was 0.091 OD; in assay [22], 0.026 OD. Further, the “OD at 405 nm” value in assay [6] is 0.356 OD.
In the case of LAVSLGQRATISCRASQSVS [LAVSLGQRATISCRASQSVS (SEQ. ID. No. 16)], the “OD at 490 nm” value was 0.979 OD in [1]; 0.35 OD in [2]; 0.299 OD in assay [3]; 0.429 OD in assay [4]; 0.998 OD in assay [8]; 1.04 OD in assay [15]. Besides, the “OD at 490 nm” value in [16] worked out at 0.859 OD; in [20], 0.365 OD; in [21] it was 0.364 OD. Further, the OD in assay [5] was found to be 0.355 OD; in assay [7] it was 0.393 OD; in assay [9], 0.03 OD; in assay [10], 0.024 OD; in assay [11], 2.63 OD; in [12], 0.872 OD. In addition, the OD was determined as 0.501 OD in assay [13]; 0.038 OD in assay [14]; 0.388 OD in assay [17]; 0.276 OD in [18]; 0.06 OD in [19]; 0.023 OD in assay [22]. Also, the “OD at 405 nm” value in assay [6] was 0.807 OD.
Regarding VKPGASVKISCKASGYSFTG (also called Peptide # 25) [VKPGASVKISCKASGYSFTG (SEQ. ID. No. 28)], the “OD at 490 nm” value in assay [1] came to 1.18 OD; in assay [2], 0.329 OD; in assay [3], 0.173 OD; in [4], 0.359 OD; in assay [8], 1.22 OD; in [15], 1.21 OD. The “OD at 490 nm” value in assay [16] was 0.302 OD; in assay [20], 0.339 OD; in assay [21] it was 0.312 OD. For the same molecule, the OD was found to be 0.217 OD in assay [5]; 0.319 OD in assay [7]; 0.115 OD in assay [9]; 0.022 OD in [10]; 2.65 OD in assay [11]; 0.897 OD in assay [12]. Moreover, the OD was found to be 0.359 OD in assay [13]; 0.05 OD in assay [14]; 0.298 OD in assay [17]; 0.569 OD in [18]; 0.096 OD in [19]; 0.034 OD in assay [22]. In assay [6], the “OD at 405 nm” value stood at 0.845 OD.
ISCRASQSVSTSSYSYMHWY [ISCRASQSVSTSSYSYMHWY (SEQ. ID. No. 17)]: the “OD at 490 nm” value in [1] was 1.26 OD; in assay [2], 0.37 OD; in assay [3], 0.305 OD; in [4] it was 0.439 OD; in assay [8], 1.56 OD; in [15], 1.44 OD. The figures for the “OD at 490 nm” value in assay [16], in [20] and in assay [21] were 1.47 OD, 0.38 OD and 0.402 OD, respectively. Besides, the OD in assay [5] came out at 0.413 OD; in [7], 0.687 OD; in assay [9] it was 0.102 OD; in assay [10], 0.046 OD; in assay [11], 2.66 OD; in [12], 1.15 OD. Also, the OD in assay [13] turned out to be 0.633 OD; in assay [14], 0.132 OD; in [17], 0.63 OD; in [18], 0.636 OD; in assay [19], 0.246 OD; in [22] it was 0.056 OD. Besides, in assay [6], the “OD at 405 nm” value came to 0.449 OD.
Take VKPGASVKLSCKASGYIFTS (also called Peptide # 2; Pept. #2) [VKPGASVKLSCKASGYIFTS (SEQ. ID. No. 5)]: the “OD at 490 nm” value in assay [1] is 0.867 OD; in [2], 0.336 OD; in assay [3], 0.078 OD; in assay [4], 0.341 OD; in assay [8] it was 0.395 OD; in assay [15], 0.824 OD. For the same molecule, the “OD at 490 nm” value in assay [16] turned out to be 0.139 OD; in assay [20], 0.331 OD; in [21], 0.188 OD. The OD is 0.333 OD in assay [5]; 0.751 OD in [7]; 0.063 OD in assay [9]; 0.081 OD in [10]; 3.45 OD in assay [11]; 1.69 OD in assay [12]. For the same molecule, the OD came out at 0.989 OD in assay [13]; 0.096 OD in assay [14]; 0.597 OD in assay [17]; 1.04 OD in assay [18]; 0.222 OD in assay [19]; 0.043 OD in assay [22]. Further, the “OD at 405 nm” value in [6] is 1.15 OD.
